Test: yeast display, Sf9 membrane polyspecificity reagent, FACS + sequencing; frameworks hold sequencing errors
In short: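 Synthetic nanobody libraries on Saccharomyces cerevisiae BJ5465 were galactose-induced for 36–48 hours, stained 1 hour at 4 °C with 10% biotinylated, detergent-solubilized Sf9 membrane reagent and enriched on streptavidin microbeads. FACS then separated cells into low and high (top ~1%) gates by anti-HA (expression) and streptavidin (reagent binding) fluorescence. Genes were colony-PCR amplified, MiSeq 2 × 250 sequenced and CDR-length filtered. A clone's polyreactivity label is that of its gate of origin.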

Sequence	polyreactivity (PSR sort gate)
QVQLVESGGGLVHAGGSLRLSCAASGRTFGWYAMGWYIQAPGKERELVASITHRGGRTYYADSVKGRFTISRDNAKHTVYLQMNSLNPEDTAVYYCAAKTSTGMGYWGQCTQVTVSS	high polyreactivity
QVQLVESGGGLVHAGGSLRLSCAASGRTFRLYVMGWYRQAPGKERELVASITRGTGTDYADSVKGRFRISRDNAKNTVYLQMNSLKPEDTAVYYCNVKYGQPIYGEFDYWGQGTQVTVSS	low polyreactivity
QVQLVESGGGLVHAGGSLRLSCAASGRTFRNNAMVWYRQAPGKEREWVAAITSGGSTNYADSVKGRFTISRDNAKNPVYLQMISLKPEDTGVYYCAKDFWYVTGGWSSGMDYWGQGTQVTVSS	low polyreactivity
QVQLVESGGGLVHAGGSLRLSCAASGRTFTLYAMGWYRQAPGKERELVAAITRTGRTTYADSVKGRFTISRDNAKNTVYLQMNSLKPEDTAVYYCAAEVEYTSASIVYYEYEYWGQGTQVTVSS	high polyreactivity
QVQLVESGGGLVHAGGSLRLSCAASGRTFVYYAMGWNTQAPGKERELVAAISAGGGSTYYADSEKGRFTISRDNAKITVYFQMNSLNPEDTAVYYCAADGSPEIRDNYWGQGTQVTVSS	high polyreactivity
QVQLVESGGGLVHAGGSLRLSCAASGRTFYIYAMGWYRQAPGKERELVAAISKSGGRTYYADSVKGRITISRDNAKNTVYLQMNSLKPEDTAVYYCNKLVGDDTALYDYWGQGTQVTVSS	high polyreactivity
QVQLVESGGGLVHAGGSLRLSCAASGRTFYIYAMGWYRQAPGKERELVADITSGGSTYYADSVKGRFTISRDNAKNTVYLQMNSLKPEDTAVYYCAADWVTFYSYTEYDYWGQGTQVTVSS	low polyreactivity
QVQLVESGGGLVHAGGSLRLSCAASGSIFDWNAMGWYTQAPGKERELVATISWDGGSTYYADSVKGRFTISRDNAKNTVYLQMNSLKPEDTAVYYCATVFTGKPAFYARTKYDYWGQRTQVTVSS	low polyreactivity
QVQLVESGGGLVHAGGSLRLSCAASGSIFEFYAMGWYRQAPGKERELVAAITWDDGSTYYADSVKGRFTISRDNAKNTVYLQMNSLKPEDTAVYYCAASASVRGGGADQYVIAFDYWGQGTQVTVSS	low polyreactivity
QVQLVESGGGLVHAGGSLRLSCAASGSIFGRNAMGWYRQPPGKERELVARISSRGGSTYYADSVKGRFTISRDNAKNTVYLQMNSLKPEDTAVYYCNRDRTSQTNDYWGQGNQVTVSS	high polyreactivity
QVQLVESGGGLVHAGGSLRLSCAASGSIFKVYAMGWYRQAPGKERELVASITSGGRTYADSVKGRFTISRDNAKNTVYLQRNSLKPEDTAVYYCSARSRSKFYYWGQGTQVTVSS	high polyreactivity
QVQLVESGGGLVHAGGSLRLSCAASGSIFPVNAMGWYRQAPGKERELVAAITSSGGTTYYADSVKGRFTISRDYAKITVYLLMNSLKPVDTAVYYCAADVDVSYWRMEYWGQGTQVTVSS	high polyreactivity
QVQLVESGGGLVHAGGSLRLSCAASGSIFSWYDMGWYRQAPGKERELVADISSGGSTNYADSVKGRFTISRDNAKNTVYLQMNSMKPEDTAVYYCNARLGYLYDYWGQGTQVTVSS	low polyreactivity
QVQLVESGGGLVHAGGSLRLSCAASGSIFVGYAMGWYRQAPGKERELVARISRSGTSTYYADSVKGRFTISRDNAKNTVYLQMNSLKPEDTAVYYCNATVSRYSGYQRGHYWRYDYWGQGTQVTVSS	high polyreactivity
QVQLVESGGGLVHAGGSLRLSCAASGSIFYEYAMGWYRQAPGKERELVASINRGGGSTYYADSVKGRFTISRDNAKNTVYLQMNSLKPEDTAVYYCAAQWKYRQSYLDYYWGQGTQVNVSS	low polyreactivity
QVQLVESGGGLVHAGGSLRLSCAASGSIIEAYAMGWYRQAPGKEMELVAVISTGGGSTSYADSVKGRFTISRDNAKNTVYLQMNSLKPEDTAVYYCAAEYRWSYFRTYYSWGQGTQVTVSS	low polyreactivity
QVQLVESGGGLVHAGGSLRLSCAASGSIYVDNAMGWYRQAPGTERELVAVISWIGSSTYYADSVKGRFTISRDNAKYTVYFQMNSLNPEDTAVFYCAAAPSRTLLRQSKYYFWGQGTQVNVSS	low polyreactivity
QVQLVESGGGLVHAGGSLRLSCAASGSIYYGNAMGWYIQAPGKERELVARISWSGSNTRYADSVKGRFTISRDNSKITVYLQMNSLKPEDTAVYYCNRGSYQTSFFRYDYWGQGTQVTVSS	high polyreactivity
QVQLVESGGGLVHAGGSLRLSCAASGSTFGFYARGWYRQAPGKERELVAAITTGGSTNYADSVKGRFTISRVNAKNTVYLQMYSLKPEDSAVYYCHADVYWNPYYDYDYWGQGTLVTVSS	high polyreactivity
QVQLVESGGGLVHAGGSLRLSCAASGSTFHTYDMGWYRKAPWKERELVAAITSRDSTHYADSVKGCFTISRDNAKNTVYLQMNSLKPEDTAVYYCAASAPYLYYRSAYYYWGQGTQVTVSS	low polyreactivity
QVQLVESGGGLVHAGGSLRLSCAASGSTFPSYAMGWYRQAPGKERELVAAINSGGGTYYADSVKGRFTISRDNAKNTVYLQRNSLKPEDTAVYYCATSRYDYTKTEGGYWGQGNQVTVSS	low polyreactivity
QVQLVESGGGLVHAGGSLRLSCAASGSTFRLYSMGWYRQAPGKERELVAAISSNGVRTYYADSVKGRFTISRDNAKNTVYLQMNSLKPEDTAVYYCAARVYPAYPRGYDYWGQGTQVTVSS	high polyreactivity
QVQLVESGGGLVHAGGSLRLSCAASGSTFSWYVMGWYRQAPGKERELVAAISYRGGRTYYADSVKGRFTISRDNAKNTVYLHMNSLKTEDTAVYYCAARGVVDAGRTNRPYDYWGQGTQVTVSS	low polyreactivity
QVQLVESGGGLVHAGGSLRLSCAASGSTSVYYAMGWYRQTPGKERELVAAITWDDGSTSYADSVKGRFTISRDNAKNTVYLQMNSLNPEDTAVYYCAKDYEYLGAFNYWGQGTQVTVSS	low polyreactivity
QVQLVESGGGLVHAGGSLRLSCAASRYTFVNYAMGWYSQAPGKERELVAAITSRGSSTYYADSVKGRFTLSRDNAKNTVYLQMNSLNPEDTAVYYCYVHVRNHDYWGEGTQVTVSS	high polyreactivity
QVQLVESGGGLVHAGGSLRLSCAPSGSNFCFNAMGWYRQAPGKERELVAAIPSRGGSTYYADSVKGRFTISRDNAKNTVYLQMNSLKPEDTAVYYCNADHRDTFIWVGLPHMDYWGQGTQVTVSS	low polyreactivity
QVQLVESGGGLVHAGGSLRLSCASSGFTFWKYAIGGYRQAPGKERELVATISLGGARTYYADSVKGRFTISLDNAKNTVYLQMNSLKPEDTAVYYCNARCRWTANFDYWVQGTQVTVSS	high polyreactivity
QVQLVESGGGLVHAGGSLRLSCDASGFTFAGYSMGWYRQAPGKERELVAGIRSSGARTYYADSVKGRFTISRDNAKTTVYLQKNILKPEHTAVYYCAKTDGFYSGYGYWGQGTQVTVSS	low polyreactivity
QVQLVESGGGLVHAGGSLRLSCDASGITFWAYAMGWYRQAPGKEREFVAAITVSTGSTFYADSVKGRFTISRDNAKNTVYLQMNSLKREDTALYYCAAPQDGTWWLPAGGYWGQGTQVTVSS	low polyreactivity
QVQLVESGGGLVHAGGSLRLSCDASGLTFAYYAMGWYRQAPGKERELVAAISWNGGRTYYADSVKGRFTISRDNAKNTVYLQMNSLKPEDTAVYYCAAQVTSSFYWGQGTQVTVSS	high polyreactivity

Reference: the nanobody polyreactivity screen of Harvey et al. (2022)
